Results published in publication PMC11276004.

How the values were obtained:
[1] = target: YPet (Yellow fluorescent Protein for energy transfer); test: AUC; sedimentation velocity, purified protein, 20 °C, PBS, 2-40 μM monomer, 40,000 rpm; c(s) fits in SEDFIT; monomer-dimer association model in SEDPHAT; constant is of dimer to monomers
[2] = target: YPet (Yellow fluorescent Protein for energy transfer); test: AUC; sedimentation velocity on cleared bacterial lysates of expressing cultures, detection at 515 nm; 4.6 μM YPet in 14.3 mg/mL lysate, 6.2 μM mCLIFY in 13.7 mg/ml lysate
[3] = target: YPet (Yellow fluorescent Protein for energy transfer); test: SEC-SAXS; synchrotron SAXS in line with SEC; 260 μM YPet or 230 μM mCLIFY injected, PBS, room temperature; SVD-EFA, mass from Qr and Porod
[4] = target: YPet (Yellow fluorescent Protein for energy transfer); test: SEC-MALS; in line with SAXS; 100 μl of 260 μM YPet or 230 μM mCLIFY injected, Shodex 804 column, PBS, room temperature; 53 μM (YPet) and 48 μM (mCLIFY) at peak

- Kd [1]: 3.4 µM
- stoichiometry N [1]: 2
- stoichiometry N [2]: 2
- stoichiometry N [3]: 2
- stoichiometry N [4]: 2
Substance: YPet (Yellow fluorescent Protein for energy transfer)
